Source: PMC10864410, “The pathogen-encoded signalling receptor Tir exploits host-like intrinsic disorder for infection” (Communications Biology, 2024)

B1: pC-Tir, C-Tir (residues 388-550 of EPEC O127:H6 Tir) phosphorylated by Fyn at four tyrosines (domain or fragment)
chain: RRNQPAEQTTTTTTHTVVQQQTGGNTPAQGGTDATRAEDASLNRRDSQGSVASTHWSDSSSEVVNPYAEVGGARNSLSAHQPEEHIYDEVAADPGYSVIQNFSGSGPVTGRLIGTPGQGIQSTYALLANSGGLRLGMGGLTSGGESAVSSVNAAPTPGPVRFV
modifications: phosphotyrosine at Y454, Y474, Y483 and Y511
B2: C-terminal SH2 domain (C-SH2) of human phosphatase SHP-1, residues 101-217 (domain or fragment, UniProt P29350 101-217, looked up)
chain: NCSDPTSERWYHGHMSGGQAETLLQAKGEPWTFLVRESLSQPGDFVLSVLSDQPKAGPGSPLRVTHIKVMCEGGRYTVGGLETFDSLTDLVEHFKKTGIEEASGAFVYLRQPYYATR
notes: Tyrosine-protein phosphatase SHP-1, human, C-terminal SH2 domain, residues 101-217; PCR-amplified from the vector pGEX SHP-1(NC)-SH2; Trx-His6 tag cleaved on-column with HRV-3C protease; unlabelled in the NMR titrations; also called SHP-1 C-SH2 domain; source: E. coli BL21 Star (DE3) pLysS, purified (Strep-Tactin XT, Superdex 200); not shown: Trx, N-terminal, cleaved; His6, N-terminal, cleaved
B3: N-Tir, N-terminal cytosolic region of the translocated intimin receptor (Tir) of EPEC O127:H6, residues 1-233 (domain or fragment)
chain: MPIGNLGNNVNGNHLIPPAPPLPSQTDGAARGGTGHLISSTGALGSRSLFSPLRNSMADSVDSRDIPGLPTNPSRLAAATSETCLLGGFEVLHDKGPLDILNTQIGPSAFRVEVQADGTHAAIGEKNGLEVSVTLSPQEWSSLQSIDTEGKNRFVFTGGRGGSGHPMVTVASDIAEARTKILAKLDPDNHGGRQPKDVDTRSVGVGSASGIDDGVVSETHTSTTNSSVRSDPK
notes: Translocated intimin receptor Tir, EPEC O127:H6, residues 1-233, from a synthetic E. coli codon-optimised gene of the full-length protein; Trx-His6 tag cleaved in vivo by co-expressed TEV protease; also called Tir's N-terminal tail; source: E. coli BL21 Star (DE3) pLysS, purified (Strep-Tactin XT, Superdex 200); not shown: Trx, N-terminal, cleaved; His6, N-terminal, cleaved; Strep-tag, …
B4: NS-Tir, N-terminal structured region of Tir (N-Tir 61-200) of EPEC O127:H6 (domain or fragment)
chain: VDSRDIPGLPTNPSRLAAATSETCLLGGFEVLHDKGPLDILNTQIGPSAFRVEVQADGTHAAIGEKNGLEVSVTLSPQEWSSLQSIDTEGKNRFVFTGGRGGSGHPMVTVASDIAEARTKILAKLDPDNHGGRQPKDVDT
notes: Translocated intimin receptor Tir, EPEC O127:H6, residues 61-200; Trx-His6 tag cleaved in vivo by co-expressed TEV protease; source: E. coli BL21 Star (DE3) pLysS, purified (Strep-Tactin XT, Superdex 200); not shown: Trx, N-terminal, cleaved; His6, N-terminal, cleaved; Strep-tag, C-terminal, kept

Key:
[1] = biological target: T1, C-terminal SH2 domain (C-SH2) of human phosphatase SHP-1, residues 101-217 (human, UniProt P29350 101-217); experiment: NMR; site pY454, apparent
T1 chain: B2 chain

[2] = biological target: T1, C-terminal SH2 domain (C-SH2) of human …; experiment: NMR; site pY511, apparent
[3] = biological target: T1, C-terminal SH2 domain (C-SH2) of human …; experiment: NMR; site pY474, apparent
[4] = biological target: T1, C-terminal SH2 domain (C-SH2) of human …; experiment: NMR; site pY483, apparent
[5] = biological target: B1; experiment: NMR; site pY454 (apparent local Kd)
[6] = biological target: B1; experiment: NMR; site pY511 (apparent local Kd)
[7] = biological target: T2, pC-Tir, C-Tir (residues 388-550 of EPEC O127:H6 Tir) phosphorylated by Fyn at four tyrosines (Enteropathogenic E. coli (EPEC) O127:H6, UniProt B7UM99 388-550, phosphotyrosine at Y454, Y474, Y483 and Y511); experiment: NMR titration; 15N-labelled pC-Tir (95 uM) titrated with 0.25, 0.5, 0.75, 1, 2, 4 and 6 equivalents of unlabelled C-SH2; [15N-1H]-HSQC peak intensities clustered by phosphorylation site and fitted globally to a 1:1 model; apparent KD for each site; details: both partners purified
T2 construct: Translocated intimin receptor Tir, EPEC O127:H6, residues 388-550; Same construct as m4, phosphorylated in vitro; 15N-labelled for the NMR titration; also called 4-fold phosphorylated state; phosphorylated C-Tir; not shown: Trx, N-terminal, cleaved; His6, N-terminal, cleaved; Strep-tag, C-terminal, kept
T2 sequence: B1 chain

[8] = biological target: B1; experiment: NMR; site pY474 (apparent local Kd)
[9] = biological target: T3, C-Tir, C-terminal cytosolic region of Tir of EPEC O127:H6, residues 388-550, unphosphorylated (Enteropathogenic E. coli (EPEC) O127:H6, UniProt B7UM99 388-550); experiment: NMR titration; unlabelled C-SH2 added to 15N-labelled unphosphorylated C-Tir (2.0 and 8.0 equivalents shown); [15N-1H]-HSQC peak intensities of A512-A515 fitted globally to a 1:1 model; apparent KD; details: both partners purified
T3 construct: Translocated intimin receptor Tir, EPEC O127:H6, residues 388-550; Trx-His6 tag cleaved on-column with HRV-3C protease; 15N-labelled for the NMR titration; also called unphosphorylated C-Tir; Tir C-terminus; source: E. coli BL21 Star (DE3) pLysS, lysed by boiling, purified (Strep-Tactin XT, Superdex 200); not shown: Trx, N-terminal, cleaved; His6, N-terminal, cleaved; Strep-tag, C-terminal, kept
T3 sequence: B1 chain

[10] = biological target: B1; experiment: NMR; site pY483 (apparent local Kd)
[11] = biological target: the molecule itself; experiment: SEC-SAXS; synchrotron SEC-SAXS, B21 beamline, Shodex KW403-4F column; 100 mM Tris-HCl pH 8.0, 150 mM NaCl, 2 mM DTT, 1 mM EDTA; 50 uL of 10.0-25.0 mg/mL injected; dimeric single-peak region

## B1
[1]
  Kd: 86.1 µM
[2]
  Kd: 6.94 µM
[3]
  Kd: 2.66 µM
[4]
  Kd: 9.25 µM

## B2
[5]
  Kd: 86.1 µM
[6]
  Kd: 6.94 µM
[7]
  fold enhancement of binding at the Y511 site against unphosphorylated C-Tir: ~10 fold
[8]
  Kd: 2.66 µM
[9]
  Kd: ~68.5 µM
[10]
  Kd: 9.25 µM

## B3
[11]
  stoichiometry N: 2

## B4
[11]
  stoichiometry N: 2
